Assays:
[1] = molecular target: Human MAP/Microtubule Affinity Regulating Kinase 4 (MARK4), recombinant, containing both kinase and UBA domains (human) (UniProt Q96L34); assay: other fluorescence titration; quenching of the intrinsic fluorescence of MARK4 (emission at 344 nm) by irisin, 0-1 µM; fitted to a modified Stern-Volmer equation
[2] = molecular target: Human MAP/Microtubule Affinity Regulating Kinase 4 (MARK4), recombinant, containing both kinase and UBA domains (human) (UniProt Q96L34); assay: ITC; VP-ITC; 15 µM MARK4 in the sample cell, 200 µM irisin in the syringe; two-site model
[3] = molecular target: Human MAP/Microtubule Affinity Regulating Kinase 4 (MARK4), recombinant, containing both kinase and UBA domains (human) (UniProt Q96L34)

Sequence of UniProt Q96L34 (Q96L34 44-370): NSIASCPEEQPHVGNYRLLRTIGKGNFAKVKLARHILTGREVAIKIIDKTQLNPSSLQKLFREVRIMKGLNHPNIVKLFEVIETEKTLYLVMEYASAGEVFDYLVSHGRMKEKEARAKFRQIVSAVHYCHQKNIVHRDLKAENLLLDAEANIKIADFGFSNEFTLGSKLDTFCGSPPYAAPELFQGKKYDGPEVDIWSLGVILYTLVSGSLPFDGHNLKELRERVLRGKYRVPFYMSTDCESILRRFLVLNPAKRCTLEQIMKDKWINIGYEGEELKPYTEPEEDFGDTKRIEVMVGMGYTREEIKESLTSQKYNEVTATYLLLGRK

Ka [1]: 8e+06 M⁻¹
Ka1 (site 1 of the two-site model) [2]: 2590 M⁻¹
Ka2 (site 2 of the two-site model) [2]: 1.19e+06 M⁻¹
dH1 (site 1 of the two-site model) [2]: -1550 kcal/mol
dH2 (site 2 of the two-site model) [2]: 190 kcal/mol
IC50 of inhibition of MARK4 kinase activity (ATPase assay), irisin 0-15 µM [3]: 2710 nM
Substance: Human irisin (natural protein)

Source: paper PMC8537121
